Patent US20130266515, “Specific Ligand for Annexin 2” (Commissariat A L'Energie Atomique ET AUX Energies …, published 2013)

How the values were obtained:
annexin 2 [1] = target: T1, annexin 2 (Homo sapiens, UniProt P07355 SEQ:2-339); test: HEK-293 cells, Scatchard; Cmax 269 pM; conditions: label: 32P, phycoerythrin, Alexa Fluor 546, biotin or Quantum Dot depending on assay; predicted secondary structure with potential pseudoknots
[2] = target: annexin 2/S100A10 heterotetrameric complex (Bos taurus, UniProt P04272;P60902 P04272:2-339,P60902:2-97); test: filter; 0-12.5 nM protein, 1 pmol RNA in 200 ul RPMI 1640, 3 ug yeast tRNA, ambient temperature; very strong affinity compared with control; conditions: tags: purified from bovine lung, Interchim A80109B; chain copies: 2 annexin 2 + 2 S100A10 (stated); label: 32P, phycoerythrin, Alexa Fluor 546, biotin or Quantum Dot depending on assay; predicted secondary structure with potential pseudoknots
Method: 1 pmol of ACE8 aptamer or of the control sequence was then preincubated with various concentrations of an annexin 2/S100A10 heterotetrameric complex. The fraction of ACE8 aptamer or of control sequence bound to the annexin 2/S100A10 heterotetramer was retained on a nitrocellulose filter and analyzed and quantified using a Storm Phosphorimager. […] FIG. 23 represents the quantification of the amount of oligonucleotides retained on the filter as a function of the concentration of annexin 2/S100A10 heterotetramer.
For this, the oligonucleotides (ACE8 aptamer or control sequence (SEQ ID NO: 11)) were dephosphorylated at their 5′ end for 30 min at 37° C. with 2.5 U of Antarctic Phosphatase (New-England Biolabs) per nmol of 2′F-Py RNA. After inactivation of the enzyme at 88° C. for 15 min, the 2′F-Py RNA was precipitated with ethanol in the presence of 5 μl/ml of a neutral coprecipitant (Linear Polyacrylamide or LPA) (Ambion). The oligonucleotides were then labeled with ATP [gamma-³²P] using T4 kinase (invitrogen) according to the supplier's instructions. The 2′F-Py RNAs (2.3 MBq, i.e. 63nCi/pmol or 63nCi/pmol⁻¹) were subsequently purified by exclusion chromatography (Bio-Spin Sp30 Chromatography Columns (Biorad)). […]

annexin 2 [3] = target: T1, annexin 2; test: U87-MG cells, Scatchard; Cmax 245 pM; conditions: label: 32P, phycoerythrin, Alexa Fluor 546, biotin or Quantum Dot depending on assay; predicted secondary structure with potential pseudoknots
annexin 2 [4] = target: T1, annexin 2; test: MDA-MB-231 cells, Scatchard; Cmax 167 pM; conditions: label: 32P, phycoerythrin, Alexa Fluor 546, biotin or Quantum Dot depending on assay; predicted secondary structure with potential pseudoknots
Method: (§1) The binding curves were obtained for each cell type. On the basis of the specific binding, and using the Scatchard representation, the Kd and the number of targets per cell were determined for each of the cell types. The target of the ACE8 aptamer appears to be highly abundant at the surface of two human cancer lines (MCF-7 and A-431).

annexin 2 [5] = target: T1, annexin 2; test: A-431 cells, Scatchard; Cmax 450 pM; conditions: label: 32P, phycoerythrin, Alexa Fluor 546, biotin or Quantum Dot depending on assay; predicted secondary structure with potential pseudoknots
Method: as §1

T1 sequence (P07355 2-339): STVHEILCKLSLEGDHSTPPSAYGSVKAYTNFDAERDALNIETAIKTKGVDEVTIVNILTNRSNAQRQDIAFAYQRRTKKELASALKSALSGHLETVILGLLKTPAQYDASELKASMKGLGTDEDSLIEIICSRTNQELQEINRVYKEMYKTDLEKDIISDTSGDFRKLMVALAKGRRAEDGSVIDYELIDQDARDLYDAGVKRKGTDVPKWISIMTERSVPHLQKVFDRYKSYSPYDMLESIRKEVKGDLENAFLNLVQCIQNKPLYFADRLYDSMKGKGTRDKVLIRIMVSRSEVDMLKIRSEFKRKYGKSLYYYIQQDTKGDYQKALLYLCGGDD
Chain of annexin 2/S100A10 heterotetrameric complex (P04272 2-339, chain 1 of 2): as the sequence (P07355 2-339) above, with A65E, I159V, P222C, D229E, R244K, R308K counted along it
Chain of annexin 2/S100A10 heterotetrameric complex (P60902 2-97, chain 2 of 2): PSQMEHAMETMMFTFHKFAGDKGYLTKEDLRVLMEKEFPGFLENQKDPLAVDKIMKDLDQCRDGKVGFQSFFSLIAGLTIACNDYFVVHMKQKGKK

B1: ACE8 (ssRNA)
RNA: GGGAGAUGAUCCGUUGAUGCGAGGGAACGCAAGAACUGAGGCCAUGAGGCGCCUUCCCUUGCUCAGGACGCAAGUCGUCGUUCGUAGGCAGAAUC
modifications: 2'-F pyrimidines, 2'-OH purines
What does the source list for B1?
Kd (annexin 2 [1]): 4.4 nM; binding result [2]: binds; Kd (annexin 2 [3]): 12.7 nM; Kd (annexin 2 [4]): 4.4 nM; Kd (annexin 2 [5]): 5.3 nM
